{
  "source": "patent US20030207791A1",
  "about": "“Materials and methods relating to the treatment of leukaemias” (priority 2000, published 2003)",
  "key": {"[1]": {"test_system": "RARE-G5-TATA reporter (GAL4-VP16 driven transcription)", "test": "Transcriptional repression of GAL4-VP16 activation, RARE-G5-TATA reporter, transfected HeLa cells", "type": "cell-based", "experimental": "FIG. 2. Role of the coiled coil of PML in the altered transcriptional properties of PML-RAR (A): Transcriptional repression by RAR and fusion proteins. Hela cells were co-transfected with the RARE-G5-TATA reporter in the absence (C) or presence of increasing amounts (50, 100, 250, 1000 ng) of the indicated expression vectors and then harvested 48 hours after transfection. Levels of expression of RAR and fusion proteins after transfection are shown in (C). (B) RARE and NCoR dependent transcriptional repression by RAR and fusion proteins. Hela cells were co-transfected with the RARE-G5-TATA or the G5-TATA, reporters and 1 μg of control expression vector (C), RAR (R), PML-RAR (P/R) and their respective AHT derivatives, as indicated. (D) RA sensitivity of RAR and fusion proteins. Cells were co-transfected with 500 ng of the indicated expression vectors. 24 hours after transfection, RA was added at the following concentrations: 1, 10, 100 nM, 1, 10 μM, and cells were harvested after additional 24 hours.\nTo test this hypothesis, the inventors devised an artificial, reporter system to measure transcriptional repression by RAR and chimeric proteins. The RARE-G5-TATA reporter construct has five GAL4 response elements fused to a minimal promoter region: upstream of the GAL4 sites, a RA responsive element (RARE) allows binding of RAR (or fusion proteins). […] RAR over-expression led to decrease of GAL4-VP16 activation, with 30-40% repression observed with the maximal amount of co-transfected RAR expression vector (1 μg, FIG. 2A), while it exerted no effect on the GAL4-VP16-mediated activation of a cognate promoter lacking the RARE (FIG. 2B). A RAR construct carrying the AHT mutation, which abrogates NCoR binding (Horlein et al., 1995), was unable to prevent activation of the RARE-G5-TATA promoter by GAL4-VP16 (FIG. 2B).\nNext, the inventors tested the transcriptional regulatory functions of PML-RAR (or derivatives). […] At the maximal concentration tested (1 μg), the inventors observed 80-90% repression with PML-RAR and 30-40% with RAR (FIG. 2A).\nTransient transfection of HeLa, NIH 3T3, SAOS and C33A cells was performed by calcium phosphate as described (Lillie and Green, 1989; Minucci et al., 1994). p53-/- MEFs were transiently transfected by lipofection as described (Pearson et al., 2000). Light units were normalized to expression of a co-transfected β-galactosidase expression plasmid. Results are presented as the mean+standard deviations of at least three independent experiments."}, "GST-NCoR": {"molecular_target": "T1, GST-NCoR (Mus musculus, UniProt Q60974)", "T1 construct": "made in house", "T1 sequence (Q60974 1782-2453)": "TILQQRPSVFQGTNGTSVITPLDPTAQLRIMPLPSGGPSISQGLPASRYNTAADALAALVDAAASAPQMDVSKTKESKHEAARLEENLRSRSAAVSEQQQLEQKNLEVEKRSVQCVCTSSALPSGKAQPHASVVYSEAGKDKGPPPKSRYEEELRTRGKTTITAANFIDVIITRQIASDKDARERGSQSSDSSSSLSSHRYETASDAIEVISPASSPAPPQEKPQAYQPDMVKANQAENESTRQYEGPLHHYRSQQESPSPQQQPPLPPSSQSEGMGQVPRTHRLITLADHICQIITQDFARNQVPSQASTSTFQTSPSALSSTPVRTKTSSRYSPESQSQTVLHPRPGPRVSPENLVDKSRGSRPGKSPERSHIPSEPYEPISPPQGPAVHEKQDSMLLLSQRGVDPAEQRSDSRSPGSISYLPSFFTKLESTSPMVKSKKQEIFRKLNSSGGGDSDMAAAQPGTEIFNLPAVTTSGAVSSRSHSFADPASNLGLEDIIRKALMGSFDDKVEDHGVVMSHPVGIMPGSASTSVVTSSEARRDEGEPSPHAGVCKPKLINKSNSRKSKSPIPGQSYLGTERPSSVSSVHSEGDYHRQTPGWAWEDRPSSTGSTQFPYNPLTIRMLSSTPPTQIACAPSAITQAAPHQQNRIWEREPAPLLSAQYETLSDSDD", "test": "GST-NCoR pull-down assay with in vitro translated 35S labelled proteins", "type": "binding", "experimental": "FIG. 1. Enhanced recruitment of NCoR by PML-RAR is due to the coiled coil region of PML. Increasing amounts of GST -NCoR (from 150 ng to 10 μg) coupled to agarose beads were incubated with the indicated in vitro translated, ^35-S labelled proteins. On the left, a schematic representation of the in vitro translated products, with the tripartite motif of PML highlighted (R, RING finger; B, B boxes; CC, coiled coil). The input lanes are loaded with the same amounts used in the pull-down experiments.\nRecruitment of the NCoR-HDAC complex is crucial for the transforming potential of PML-RAR. At low concentrations of RA (1-100 nM), the stability of the PML-RAR-NCoR complex is higher than that of the RAR-NCoR complex (Grignani et al., 1998; He et al., 1998; Lin et al., 1998). […] Pull-down assays were performed by incubation of in vitro translated, ^35S labelled PML-RAR or RAR with GST-NCoR coupled to agarose beads.\nGST-NCoR (1782-2453) or GST-NCoR (RDIII) purification and in vitro interaction experiments were performed as described, incubating the indicated amounts of GST-NCoR attached to a constant amount of glutathione-agarose beads in the presence of the appropriate ^35-S labelled, in vitro translated proteins(Gelmetti et al., 1998; Grignani et al., 1998; Zamir et al., 1996). The input lanes represent 100% of the total. Coimmunoprecipitation experiments were performed as described(Gelmetti et al., 1998), using extracts from transiently transfected COS-1 cells, or in vitro translated products."}, "[2]": {"test_system": "U937 cells expressing PML-RAR under the control of an inducible promoter", "test": "Differentiation (CD14) of U937 cells with inducible PML-RAR treated with vitamin D and TGFβ", "type": "cell-based", "details": "for differentiated, CD14+ cells: cells expressing the coiled coil of PML, vitamin D and TGFβ", "description": "The cells were either uninduced (ctr column), or induced to express PML-RAR (PML-RAR column). Cells were transduced with retroviral vectors encoding the coiled coil of PML (RBCC) and GFP as a marker, or with retroviral vectors encoding GFP alone as a control (control). […] In cells expressing the coiled coil of PML (gated in the cytofluorimetric analysis based on the positivity for the GFP marker), PML-RAR was unable to block efficiently differentiation (from 90% to 70%). Levels of expression of PML-RAR were unchanged by expressing the coiled coil region of PML.\nRAR oligomerization through the coiled coil region of PML is required for its leukemogenic activity, and deletion of the PML coiled coil is sufficient to lead to loss of oncogenic potential (Minucci et al., 2000). Small molecule compounds able to disrupt PML-RAR oligomers would therefore be able to revert the leukemic phenotype."}},
  "data": [
    {"molecule": "RAR: retinoic acid receptor α, wild type (protein) MASNSSSCPTPGGGHLNGYPVPPYAFFFPPMLGGLSPPGALTTLQHQLPVSGYSTPSPATIETQSSSSEEIVPSPPSPPPLPRIYKPCFVCQDKSSGYHYGVSACEGCKGFFRRSIQKNMVYTCHRDKNCIINKVTRNRCQYCRLQKCFEVGMSKESVRNDRNKKKKEVPKPECSESYTLTPEVGELIEKVRKAHQETFPALCQLGKYTTNNSSEQRVSLDIDLWDKFSELSTKCIIKTVEFAKQLPGFTTLTIADQITLLKAACLDILILRICTRYTPEQDTMTFSDGLTLNRTQMHNAGFGPLTDLVFAFANQLLPLEMDDAETGLLSAICLICGDRQDLEQPDRVDMLQEPLLEALKVYVRKRRPSRPHMFPKMLMKITDLRSISAKGAERVITLKMEIPGSMPPLIQEMLENSEGLDTLSGQPGGGGRDGGGLAPPPGSCSPSLSPSSNRSSPATHSP", "values": [
      {"measurement": "amount of expression vector necessary to measure significant transcriptional repression", "setting": "[1]", "result": "at least 250 ng"},
      {"measurement": "repression of GAL4-VP16 activation", "setting": "[1]; maximal amount of expression vector, 1 μg", "result": "30-40%"},
      {"measurement": "higher amounts of GST-NCoR required to obtain significant binding, compared with PML-RAR", "setting": "GST-NCoR; GST-NCoR 150 ng to 10 μg", "result": "15-30 fold"}
    ]},
    {"molecule": "coiled coil of PML: coiled coil of PML including the additional amino-terminal region, expressed from retroviral vector (protein) MEPAPARSPRPQQDPARPQEPTMPPPETPSEGRQPSPSPSPTERAPASEEEFQFLRCQQCQAEAKCPKLLPCLHTLCSGCLEASGMQCPICQAPWPLGADTPALDNVFFESLQRRLSVYRQIVDAQAVCTRCKESADFWCFECEQLLCAKCFEAHQWFLKHEARPLAELRNQSVREFLDGTRKTNNIFCSNPNHRTPTLTSIYCRGCSKPLCCSCALLDSSHSELKCDISAEIQQRQEELDAMTQALQEQDSAFGAVHAQMHAAVGQLGRARAETEELIRERVRQVVAHVRAQERELLEAVDARYQRDYEEMASRLGRLDAVLQRIRTGSALVQRMKCYASDQEVLDMHGFLRQALCRLR", "values": [
      {"measurement": "differentiated, CD14+ cells", "setting": "[2]; PML-RAR induced", "result": 70, "unit": "%"},
      {"measurement": "toxicity", "setting": "[2]; uninduced cells", "result": "did not notice appreciable toxicity"},
      {"measurement": "differentiated, CD14+ cells", "setting": "[2]; uninduced", "result": 90, "unit": "%"}
    ]},
    {"molecule": "CC-RAR: fusion of the coiled coil region of PML to RAR (protein) SELKCDISAEIQQRQEELDAMTQALQALQEQDSAEGAVHAQMHAAVGQLGRARAETEELIRERVRQVVAHVRAQERELLEAVDARYQRDYEEMASRLGRLDAVLQRIRTGSALVQRMKCYASDQEVLDMHGFLRQALCRLRMASNSSSCPTPGGGHLNGYPVPPYAFFFPPMLGGLSPPGALTTLQHQLPVSGYSTPSPATIETQSSSSEEIVPSPPSPPPLPRIYKPCFVCQDKSSGYHYGVSACEGCKGFFRRSIQKNMVYTCHRDKNCIINKVTRNRCQYCRLQKCFEVGMSKESVRNDRNKKKKEVPKPECSESYTLTPEVGELIEKVRKAHQETFPALCQLGKYTTNNSSEQRVSLDIDLWDKFSELSTKCIIKTVEFAKQLPGFTTLTIADQITLLKAACLDILILRICTRYTPEQDTMTFSDGLTLNRTQMHNAGFGPLTDLVFAFANQLLPLEMDDAETGLLSAICLICGDRQDLEQPDRVDMLQEPLLEALKVYVRKRRPSRPHMFPKMLMKITDLRSISAKGAERVITLKMEIPGSMPPLIQEMLENSEGLDTLSGQPGGGGRDGGGLAPPPGSCSPSLSPSSNRSSPATHSP", "values": [
      {"measurement": "capacity to repress GAL4-VP16 driven transcription", "setting": "[1]", "result": "as strongly as PML-RAR"},
      {"measurement": "binding to GST-NCoR", "setting": "GST-NCoR; increasing amounts of GST-NCoR", "result": "same characteristics of binding as PML-RAR"}
    ]}
  ]
}
